The source of these data is patent WO2025083273A1 (dated 2025).

The labels stand for the following.
T1: human DR3 (TNFRSF25) expressed on cells (human, UniProt Q93038 25-417)
T1 sequence: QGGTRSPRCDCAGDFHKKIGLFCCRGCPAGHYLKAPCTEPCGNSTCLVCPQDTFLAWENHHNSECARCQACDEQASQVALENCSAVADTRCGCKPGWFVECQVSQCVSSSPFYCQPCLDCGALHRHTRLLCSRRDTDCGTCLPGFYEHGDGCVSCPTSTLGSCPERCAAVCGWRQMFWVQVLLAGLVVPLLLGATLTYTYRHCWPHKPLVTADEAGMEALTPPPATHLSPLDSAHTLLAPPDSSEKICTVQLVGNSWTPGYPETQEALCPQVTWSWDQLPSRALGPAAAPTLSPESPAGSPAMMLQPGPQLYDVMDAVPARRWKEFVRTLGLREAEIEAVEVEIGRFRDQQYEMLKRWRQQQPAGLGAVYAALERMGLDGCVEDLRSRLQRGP

B1: VHg5/VLg1 (antibody, human IgG1, V domains shown)
VH: QVQLQQSGGGLVQAGGSLRLSCAASGFTFTSYAMSWVRQAPGKGLEWVATISDGDSYSYFPDSVKDRFIISRDNAKNSLFLQMNSLRAEDTAVYYCARDRIYGSVQYYAMDYWGRGTLVTVSS
VL: DVVMTQSPDSLAVSLGERATINCRASESVEFSGTSLMQWYQQKPGQPPKLLIYAASNVESGVPDRFSGSGSGTDFTLTISSLQAEDVVVYYCQQSRKLPYTFGGGTKVEIK
B2: VHg5/mVL (antibody, human IgG1, V domains shown)
VH: B1 VH
VL: DIVLTQSPASLAVSLGQRATISCRASESVEFSGTSLMQWYQQRPGLPPKLLIYAASNVESGVPARFSGSGSGTDFSLNIHPVEEDDIAMYFCQQSRKLPYTFGGGTKLEIN
B3: VHg5/VLg6 (antibody, human IgG1, V domains shown)
VH: B1 VH
VL: DVVMTQSPPSLPVTPGEPASISCRASESVEFSGTSLMQWYLQKPGQSPQVLIYAASNVESGVPDRFSGSGSGTDFTLKISRVEAEDVGVYYCQQSRKLPYTFGQGTRLEIK
B4: VHg5/VLg4 (antibody, human IgG1, V domains shown)
VH: B1 VH
VL: B1 VL with N22S, G45R, P48L, V88A, G104Q, K107R, V108L
B5: VHg10/VLg13 (antibody, human IgG1, V domains shown)
VH: EVQLVESGGGLVQPGGSLRLSCAASGFTFSSYAMSWVRQAPGKGLEWVSTISDGDSYSYFPDSVKDRFTISRDNSKNTLYLQMNSLRAEDTAVYYCARDRIYGSVQYYAMDYWGQGTLVTVSS
VL: DIQMTQSPSSLSASVGDRVTITCRASESVEFSGTSLMQWYQQKPGKAPKLLIYAASNVESGVPSRFSGSGSGTDFTFTISSLQPEDIATYYCQQSRKLPYTFGQGTKLEIK
B6: VHg6/VLg6 (antibody, human IgG1, V domains shown)
VH: B1 VH with A14P, T30S, I69T, K76R, F80Y
VL: B3 VL
B7: VHg6/mVL (antibody, human IgG1, V domains shown)
VH: B1 VH with A14P, T30S, I69T, K76R, F80Y
VL: B2 VL
B8: VHg1/VLg1 (antibody, human IgG1, V domains shown)
VH: B5 VH with E1Q, E6Q, A92S
VL: B1 VL
B9: VHg2/VLg1 (antibody, human IgG1, V domains shown)
VH: B5 VH with E1Q, V2M, E6Q, Q13K, V37I, S75A, T78S, A97T, Q115R
VL: B1 VL
B10: VHg9/VLg2 (antibody, human IgG1, V domains shown)
VH: B5 VH with Q13K, S75A, T78S
VL: B5 VL with M4L, P44A, K46L, F77L, I87F, A88G, K107R
B11: VHg3/VLg6 (antibody, human IgG1, V domains shown)
VH: B5 VH with E6Q, Q13K, T28K, V48L, T69I, S75A, T78S, A88V, A92G
VL: B3 VL
B12: VHg2/mVL (antibody, human IgG1, V domains shown)
VH: B5 VH with E1Q, V2M, E6Q, Q13K, V37I, S75A, T78S, A97T, Q115R
VL: B2 VL
B13: VHg1/VLg6 (antibody, human IgG1, V domains shown)
VH: B5 VH with E1Q, E6Q, A92S
VL: B3 VL
B14: VHg3/mVL (antibody, human IgG1, V domains shown)
VH: B5 VH with E6Q, Q13K, T28K, V48L, T69I, S75A, T78S, A88V, A92G
VL: B2 VL
B15: VHg9/VLg4 (antibody, human IgG1, V domains shown)
VH: B5 VH with Q13K, S75A, T78S
VL: B1 VL with N22S, G45R, P48L, V88A, G104Q, K107R, V108L
B16: VHg2/VLg5 (antibody, human IgG1, V domains shown)
VH: B5 VH with E1Q, V2M, E6Q, Q13K, V37I, S75A, T78S, A97T, Q115R
VL: EIVLTQSPGTLSLSPGERGTLSCRASESVEFSGTSLMQWYQQKPGQAPRLLIYAASNVESGIPDRFSGSGSETDFTLTISRLEPEDLAVYYCQQSRKLPYTFGQGTRLEIK
B17: VHg9/mVL (antibody, human IgG1, V domains shown)
VH: B5 VH with Q13K, S75A, T78S
VL: B2 VL
B18: VHg9/VLg5 (antibody, human IgG1, V domains shown)
VH: B5 VH with Q13K, S75A, T78S
VL: B16 VL
B19: VHg1/VLg13 (antibody, human IgG1, V domains shown)
VH: B5 VH with E1Q, E6Q, A92S
VL: B5 VL
B20: VHg10/mVL (antibody, human IgG1, V domains shown)
VH: B5 VH
VL: B2 VL
B21: VHg6/VLg5 (antibody, human IgG1, V domains shown)
VH: B1 VH with A14P, T30S, I69T, K76R, F80Y
VL: B16 VL
B22: VHg2/VLg6 (antibody, human IgG1, V domains shown)
VH: B5 VH with E1Q, V2M, E6Q, Q13K, V37I, S75A, T78S, A97T, Q115R
VL: B3 VL
B23: VHg9/VLg12 (antibody, human IgG1, V domains shown)
VH: B5 VH with Q13K, S75A, T78S
VL: B16 VL with G9A, G19A, D64A, E72G, R81S, L87F, R107K
B24: VHg10/VLg1 (antibody, human IgG1, V domains shown)
VH: B5 VH
VL: B1 VL
B25: VHg9/VLg13 (antibody, human IgG1, V domains shown)
VH: B5 VH with Q13K, S75A, T78S
VL: B5 VL
B26: VHg10/VLg2 (antibody, human IgG1, V domains shown)
VH: B5 VH
VL: B5 VL with M4L, P44A, K46L, F77L, I87F, A88G, K107R
B27: VHg3/VLg2 (antibody, human IgG1, V domains shown)
VH: B5 VH with E6Q, Q13K, T28K, V48L, T69I, S75A, T78S, A88V, A92G
VL: B5 VL with M4L, P44A, K46L, F77L, I87F, A88G, K107R
B28: VHg3/VLg1 (antibody, human IgG1, V domains shown)
VH: B5 VH with E6Q, Q13K, T28K, V48L, T69I, S75A, T78S, A88V, A92G
VL: B1 VL

Changes are numbered by the printed parent chain.

The test concerns the target T1, human DR3 (TNFRSF25) expressed on cells. As to the kind of experiment: cell-based or functional assay.
Molecule R347 IgG (antibody) displayed a Signal (FLU), isotype control of 385000 FLU.

Regarding B1, the “Signal (FLU)” value was determined as 410000 FLU.

In the case of B2, the “Signal (FLU)” value stood at 2.69e+06 FLU.

Regarding B3, the “Signal (FLU)” value came out at 387000 FLU.

As to B4, the “Signal (FLU)” value came out at 1.44e+06 FLU.

B5: the “Signal (FLU)” value was determined as 3.27e+06 FLU.

B6: the “Signal (FLU)” value amounted to 1.96e+06 FLU.

Regarding B7, the “Signal (FLU)” value worked out at 2.6e+06 FLU.

Turning to B8, the “Signal (FLU)” value was 797000 FLU.

On to B9, for which the “Signal (FLU)” value turned out to be 402000 FLU.

As for B10, the “Signal (FLU)” value is 2.88e+06 FLU.

In the case of B11, the “Signal (FLU)” value came to 2.05e+06 FLU.

As for B12, the “Signal (FLU)” value worked out at 2.57e+06 FLU.

Turning to B13, the “Signal (FLU)” value is 1.5e+06 FLU.

Regarding B14, the “Signal (FLU)” value is 2.86e+06 FLU.

B15: the “Signal (FLU)” value worked out at 2.96e+06 FLU.

As to B16, the “Signal (FLU)” value turned out to be 2.52e+06 FLU.

For B17, the “Signal (FLU)” value came to 3.35e+06 FLU.

As for B18, the “Signal (FLU)” value worked out at 3.05e+06 FLU.

In the case of B19, the “Signal (FLU)” value came to 2.81e+06 FLU.

Regarding B20, the “Signal (FLU)” value turned out to be 3.2e+06 FLU.

B21: the “Signal (FLU)” value came to 2.85e+06 FLU.

Regarding B22, the “Signal (FLU)” value is 1.62e+06 FLU.

Consider B23, for which the “Signal (FLU)” value stood at 682000 FLU.

With B24, the “Signal (FLU)” value was 2.54e+06 FLU.

On to B25, for which the “Signal (FLU)” value was 3.33e+06 FLU.

With B26, the “Signal (FLU)” value turned out to be 2.84e+06 FLU.

B27: the “Signal (FLU)” value was 2.23e+06 FLU.

Regarding B28, the “Signal (FLU)” value was determined as 2.46e+06 FLU.
